Experimental data from article PMC9515186.

Biological target: transferrin receptor 1 (mouse (endogenous in 4T1)) (UniProt Q62351)
Sequence of UniProt Q62351 (Q62351 whole entry): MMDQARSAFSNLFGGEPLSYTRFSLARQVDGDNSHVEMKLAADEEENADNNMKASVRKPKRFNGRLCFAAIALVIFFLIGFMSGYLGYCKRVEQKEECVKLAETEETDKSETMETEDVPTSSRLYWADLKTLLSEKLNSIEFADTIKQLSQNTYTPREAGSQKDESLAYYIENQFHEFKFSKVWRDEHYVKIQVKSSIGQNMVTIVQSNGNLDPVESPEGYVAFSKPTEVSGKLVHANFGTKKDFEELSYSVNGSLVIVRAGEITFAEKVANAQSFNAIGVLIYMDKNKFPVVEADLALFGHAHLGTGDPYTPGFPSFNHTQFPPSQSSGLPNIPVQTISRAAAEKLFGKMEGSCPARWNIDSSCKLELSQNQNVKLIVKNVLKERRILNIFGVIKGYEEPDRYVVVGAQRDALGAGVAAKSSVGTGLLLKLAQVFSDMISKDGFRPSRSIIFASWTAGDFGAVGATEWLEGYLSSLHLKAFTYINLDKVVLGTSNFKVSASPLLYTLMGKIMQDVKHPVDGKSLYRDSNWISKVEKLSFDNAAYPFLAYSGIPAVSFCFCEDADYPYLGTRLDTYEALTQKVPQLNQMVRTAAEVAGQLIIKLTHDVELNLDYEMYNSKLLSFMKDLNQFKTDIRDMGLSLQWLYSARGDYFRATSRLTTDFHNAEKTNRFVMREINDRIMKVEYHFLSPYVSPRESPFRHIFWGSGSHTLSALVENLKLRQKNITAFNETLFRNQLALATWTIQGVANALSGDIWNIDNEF

“ferritin (FITC-labelled, β-lapachone-loaded ferritin units, Ft-FITC@Lap) (from UniProt Q8MIP0 1-182; P02791 1-175) (natural protein)” was tested. Which decrease in FITC fluorescence accumulation (uptake, flow cytometry) in BSA-Man-Ft-FITC@Lap-treated 4T1 cells under pH 6.5 after pre-treatment with TfR1 antibody did it give?
The decrease in FITC fluorescence accumulation (uptake, flow cytometry) in BSA-Man-Ft-FITC@Lap-treated 4T1 cells under pH 6.5 after pre-treatment with TfR1 antibody was 67%.

And the mean fluorescence intensity of FITC in 4T1 cells (CLSM) treated with BSA-Man@Mn2+-Ft-FITC@Lap, pH 6.5 group against pH 7.4 group?
Its mean fluorescence intensity of FITC in 4T1 cells (CLSM) treated with BSA-Man@Mn2+-Ft-FITC@Lap, pH 6.5 group against pH 7.4 group is 3 fold.
